From patent US10738090B2, “Engineered microcompartment protein and related methods and systems of engineering bacterial systems for non-native protein expression and purification” (priority 2017, dated 2020)
No end group written: not given here.

How the values were obtained:
E. coli BL21(DE3) cells = type: cell-based; settings: for concentration showing significant anti-bacterial activity: BL21(DE3) E. coli
Protocol: Growth inhibition activity can be tested against E. coli BL21(DE3) cells. Overnight cultures of cells were diluted to 200 μL of an initial OD600 of 0.05-0.1 in LB medium. Diluted cultures were grown at 37° C., 1000 rpm in a PHMP-4 Microplate Shaker (Grant Instruments, Cambridge, England). Protein was added to the culture at an OD600 of 0.1-0.2. Growth measured by OD600 was monitored over time and were conducted in triplicate. TEV-digested material contained HB-Enc fusion protein (0.5 mg/mL) that was incubated with TEV protease (0.5 U/mL) overnight for 17 h at 4° C.

pathogens = settings: cited from earlier work
[1] = Proteolysis of HB fusion constructs in C43(DE3) cell lysate (SDS-PAGE, anti-His Western blot); set-up: species or system E. coli
Protocol: In particular, in order to perform the testing, all DNA plasmids were transformed and expressed in C43(DE3) cells as described in Example 12, except that cells were grown in 25 mL of LB medium in 150-mL flasks. IPTG induction was conducted overnight for 17 h at 18° C. to enhance soluble protein expression. Cells were harvested and lysed also as described in Example 12.
To test for proteolysis in cell lysate, cells expressing the HB-Enc constructs from 25 mL of culture were harvested and resuspended in phosphate buffer (50 mM sodium phosphate pH 8.0, 500 mM NaCl) and 10 U/mL of DNaseI. Cells were lysed via a French Pressure cell at 14,000 psi and then centrifuged at 12,000 g, 4° C. for 25 min. The supernatant (soluble) fraction was collected and incubated at 4° C. overnight. Samples for SDS-PAGE analysis were collected immediately after lysis and after overnight incubation.
As controls, samples after BPER-II lysis were also prepared. Samples were resolved on an any-kDa SDS-PAGE gel (Bio-Rad) and stained with Coomassie blue. For Western blot analysis, samples were resolved on an any-kDa and blotted to a PVDF membrane using a Transblot Turbo System (Bio-Rad) at 2.5 A for 7 min. Samples were probed using a mouse anti-His-tag primary antibody and a rabbit anti-Mouse-HRP conjugated secondary antibody (both from Bio-Rad). HRP was detected on the membrane using chemiluminescence.

TEV protease = biological target: T1, TEV protease (Tobacco etch virus, UniProt P04517); type: biochemical; settings: for extent of TEV protease digestion / release of HBCM2 peptide: exogenous TEV protease, overnight at 4° C., G4T linker; for release of HB peptide by TEV protease: GT linker instead of G4T linker between TEV site and N-terminus of Enc, SDS-PAGE
T1 construct: Tobacco etch virus protease (TEV protease)
Protocol: All purified constructs were digested by addition of exogenous TEV protease, followed by overnight incubation at 4° C. Products were resolved on a 16.5% Tris-Tricine gel (Bio-Rad).

[2] = French press lysis without BPER-II, then overnight incubation at 4° C.
[3] = immediately after French press lysis

For “GNNRPVYIPQPRPPHPRI [native Ap peptide, Apidaecin Ia, reference compound]”, the “concentration showing significant anti-bacterial activity” value (E. coli BL21(DE3) cells; chemically synthesized peptide) is given as at least 100 µg/mL and the bactericidal activity (pathogens) is given as “high bactericidal activity”.

With “MKWKSFIKKLTKAAKKVVTTAKKPLIVENLYFQ [M-HBCM2-TEV]” the “concentration showing significant anti-bacterial activity” value (E. coli BL21(DE3) cells; chemically synthesized peptide) was 2 µg/mL and the MIC (E. coli BL21(DE3) cells; chemically synthesized peptide, E. coli BL21(DE3), FIG. 31 Panel B) was under 5 µg/mL.

For Cecropin PR-39, the bactericidal activity (pathogens) is given as “high bactericidal activity”.

B1: HB-EncK71^TEV (protein)
chain: MKWKSFIKKLTKAAKKVVTTAKKPLIVENLYFQGGGGGTEFLKRSFAPLTEKQWQEIDNRAREIFKTQLYGRKFVDVEGPYGWEYAAHPLGEVEVLSDENEVVKWGLRKGGENLYFQGGGSLPLIELRATFTLDLWELDNLERGKPNVDLSSLEETVRKVAEFEDEVIFRGCEKSGVKGLLSFEERKIECGSTPKDLLEAIVRALSIFSKDGIEGPYTLVINTDRWINFLKEEAGHYPLEKRVEECLRGGKIITTPRIEDALVVSERGGDFKLILGQDLSIGYEDREKDAVRLFITETFTFQVVNPEALILLK
With B1 the “proteolysis in cell lysate” value [1, 2] was “completely proteolyzed”, the “proteolysis in cell lysate” value [1, 3] was “significantly degraded” and the “extent of TEV protease digestion / release of HBCM2 peptide” value (TEV protease) was “apparent complete digestion”.

B2: HB-EncK138^TEV-His: HBCM2, TEV site, G4T-linker fused to N-terminus of Enc; TEV site and His6-tag after K138; cage forming (protein)
chain: MKWKSFIKKLTKAAKKVVTTAKKPLIVENLYFQGGGGGTEFLKRSFAPLTEKQWQEIDNRAREIFKTQLYGRKFVDVEGPYGWEYAAHPLGEVEVLSDENEVVKWGLRKSLPLIELRATFTLDLWELDNLERGKPNVDLSSLEETVRKVAEFEDEVIFRGCEKSGVKGLLSFEERKGGGGGENLYFQGHHHHHHGGGGGIECGSTPKDLLEAIVRALSIFSKDGIEGPYTLVINTDRWINFLKEEAGHYPLEKRVEECLRGGKIITTPRIEDALVVSERGGDFKLILGQDLSIGYEDREKDAVRLFITETFTFQVVNPEALILLK
For B2, the “proteolysis in cell lysate” value [1, 2] was “resistant to proteolysis”.

B3: TEV protease: Tobacco etch virus protease, recognition sequence ENLYFQ/G; negative control alone (protein)
chain: GESLFKGPRDYNPISSTICHLTNESDGHTTSLYGIGFGPFIITNKHLFRRNNGTLLVQSLHGVFKVKNTTTLQQHLIDGRDMIIIRMPKDFPPFPQKLKFREPQREERICLVTTNFQTKSMSSMVSDTSCTFPSSDGIFWKHWIQTKDGQCGSPLVSTRDGFIVGIHSASNFTNTNNYFTSVPKNFMELLTNQEAQQWVSGWRLNADSVLWGGHKVFMSKPEEPFQPVKEATQLMNELVYSQ
For B3, the “anti-bacterial / growth inhibition activity” value (E. coli BL21(DE3) cells; E. coli BL21(DE3), concentration not given) was “no growth inhibition”.

B4: HB-EncD60^TEVK138^TEV-His with the shorter GT linker: HB-EncD60^TEVK138^TEV-His with a GT linker instead of the G4T linker (protein)
chain: MKWKSFIKKLTKAAKKVVTTAKKPLIVENLYFQGGTEFLKRSFAPLTEKQWQEIDNRAREIFKTQLYGRKFVDVEGPYGWEYAAHPLGEVEVLSDGGENLYFQGGGENEVVKWGLRKSLPLIELRATFTLDLWELDNLERGKPNVDLSSLEETVRKVAEFEDEVIFRGCEKSGVKGLLSFEERKGGGGGENLYFQGHHHHHHGGGGGIECGSTPKDLLEAIVRALSIFSKDGIEGPYTLVINTDRWINFLKEEAGHYPLEKRVEECLRGGKIITTPRIEDALVVSERGGDFKLILGQDLSIGYEDREKDAVRLFITETFTFQVVNPEALILLK
In the case of B4, the “release of HB peptide by TEV protease” value (TEV protease) is reported as “did not result in detectable release of HB peptide”.

B5: HB-EncK71^TEVK138^TEV-His: HBCM2 fused to N-terminus of T. maritima encapsulin; TEV sites after K71 and K138, His-tag; non-cage forming (protein)
chain: MKWKSFIKKLTKAAKKVVTTAKKPLIVENLYFQGGGGGTEFLKRSFAPLTEKQWQEIDNRAREIFKTQLYGRKFVDVEGPYGWEYAAHPLGEVEVLSDENEVVKWGLRKGGENLYFQGGGSLPLIELRATFTLDLWELDNLERGKPNVDLSSLEETVRKVAEFEDEVIFRGCEKSGVKGLLSFEERKGGGGGENLYFQGHHHHHHGGGGGIECGSTPKDLLEAIVRALSIFSKDGIEGPYTLVINTDRWINFLKEEAGHYPLEKRVEECLRGGKIITTPRIEDALVVSERGGDFKLILGQDLSIGYEDREKDAVRLFITETFTFQVVNPEALILLK
With B5 the “growth inhibition of E. coli” value (E. coli BL21(DE3) cells; undigested fusion protein at 40 μg/mL) was “did not inhibit the growth”, the “truncated products on expression (proteolysis)” value ([1]; C43(DE3) cells, anti-His-tag Western blot) was “some truncated products” and the “proteolysis in cell lysate” value [1, 2] was “completely proteolyzed”. For the same molecule, the “proteolysis in cell lysate” value [1, 3] was “significantly degraded” and the “extent of TEV protease digestion / release of HBCM2 peptide” value (TEV protease) was “apparent complete digestion”.

B6: HB-EncV57^TEVK138^TEV-His with the shorter GT linker: HB-EncV57^TEVK138^TEV-His with a GT linker instead of the G4T linker (protein)
chain: MKWKSFIKKLTKAAKKVVTTAKKPLIVENLYFQGGTEFLKRSFAPLTEKQWQEIDNRAREIFKTQLYGRKFVDVEGPYGWEYAAHPLGEVEVGGENLYFQGGGLSDENEVVKWGLRKSLPLIELRATFTLDLWELDNLERGKPNVDLSSLEETVRKVAEFEDEVIFRGCEKSGVKGLLSFEERKGGGGGENLYFQGHHHHHHGGGGGIECGSTPKDLLEAIVRALSIFSKDGIEGPYTLVINTDRWINFLKEEAGHYPLEKRVEECLRGGKIITTPRIEDALVVSERGGDFKLILGQDLSIGYEDREKDAVRLFITETFTFQVVNPEALILLK
With B6 the “release of HB peptide by TEV protease” value (TEV protease) was “did not result in detectable release of HB peptide”.

B7: HB-EncD60^TEVK138^TEV-His: HB-Enc fusion with TEV site after D60 plus TEV-His insertion after K138; cage forming (protein)
chain: MKWKSFIKKLTKAAKKVVTTAKKPLIVENLYFQGGGGGTEFLKRSFAPLTEKQWQEIDNRAREIFKTQLYGRKFVDVEGPYGWEYAAHPLGEVEVLSDGGENLYFQGGGENEVVKWGLRKSLPLIELRATFTLDLWELDNLERGKPNVDLSSLEETVRKVAEFEDEVIFRGCEKSGVKGLLSFEERKGGGGGENLYFQGHHHHHHGGGGGIECGSTPKDLLEAIVRALSIFSKDGIEGPYTLVINTDRWINFLKEEAGHYPLEKRVEECLRGGKIITTPRIEDALVVSERGGDFKLILGQDLSIGYEDREKDAVRLFITETFTFQVVNPEALILLK
In the case of B7, the “proteolysis in cell lysate” value [1, 2] is reported as “resistant to proteolysis”.

B8: HB-EncV57^TEVK138^TEV-His: HB-Enc fusion with TEV site after V57 plus TEV-His insertion after K138; cage forming (protein)
chain: MKWKSFIKKLTKAAKKVVTTAKKPLIVENLYFQGGGGGTEFLKRSFAPLTEKQWQEIDNRAREIFKTQLYGRKFVDVEGPYGWEYAAHPLGEVEVGGENLYFQGGGLSDENEVVKWGLRKSLPLIELRATFTLDLWELDNLERGKPNVDLSSLEETVRKVAEFEDEVIFRGCEKSGVKGLLSFEERKGGGGGENLYFQGHHHHHHGGGGGIECGSTPKDLLEAIVRALSIFSKDGIEGPYTLVINTDRWINFLKEEAGHYPLEKRVEECLRGGKIITTPRIEDALVVSERGGDFKLILGQDLSIGYEDREKDAVRLFITETFTFQVVNPEALILLK
In the case of B8, the “proteolysis in cell lysate” value [1, 2] is reported as “resistant to proteolysis”.

B9: HB-EncK138^TEV-His with the shorter GT linker: HB-EncK138^TEV-His with a GT linker between TEV site and N-terminus of Enc instead of G4T (protein)
chain: MKWKSFIKKLTKAAKKVVTTAKKPLIVENLYFQGGTEFLKRSFAPLTEKQWQEIDNRAREIFKTQLYGRKFVDVEGPYGWEYAAHPLGEVEVLSDENEVVKWGLRKSLPLIELRATFTLDLWELDNLERGKPNVDLSSLEETVRKVAEFEDEVIFRGCEKSGVKGLLSFEERKGGGGGENLYFQGHHHHHHGGGGGIECGSTPKDLLEAIVRALSIFSKDGIEGPYTLVINTDRWINFLKEEAGHYPLEKRVEECLRGGKIITTPRIEDALVVSERGGDFKLILGQDLSIGYEDREKDAVRLFITETFTFQVVNPEALILLK
In the case of B9, the “release of HB peptide by TEV protease” value (TEV protease) is reported as “did not result in detectable release of HB peptide”.
